{"source": "the supplement of paper PMC10126150", "note": "± gives the standard deviation of the averaged measurements.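 Note: ATP exposure 15 min at 22 °C before imaging.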"}
{"system": "ATP", "test": "switch fluorescence ratio, 500 uM ATP over buffer (Cy3 cluster intensity, sum of 5 cycles each) (fold (ratio)); higher = stronger signal-on switching upon ATP binding; sequences stand for … in TCGTCGGCAGCGTCAGATGTGTATAAGAGACAGTTTTTTTTTTTTTTTTTTTTTTTTT…TC", "conditions": "aptamer strand: ATP DNA aptamer (quencher-CACCTGGGGGAGTATTGCGGAGGAAGG + anchor), 100 nM annealed; ATP concentration: 500 uM", "procedure,_shortened": "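Per cluster, summed Cy3 intensity from the target cycles was divided by that from the buffer cycles to give the fluorescence ratio, then averaged per switch-domain sequence. Clusters outside 100-1000 RFU were excluded. The Cy3-labelled switching-strand clusters, on a modified Illumina MiSeq flow-cell, were annealed to 100 nM quencher-labelled ATP aptamer and imaged in selection buffer, then after 15 min with 500 uM ATP at 22 °C, for five cycles with NaOH stripping and re-annealing between them.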"}
{"sequence": "TGGTTGATTG", "switch fluorescence ratio": "0.975 ± 0.047"}
{"sequence": "TGGTTGCTCT", "switch fluorescence ratio": "0.9891 ± 0.008"}
{"sequence": "TGGTTGGAGC", "switch fluorescence ratio": "0.997 ± 0.029"}
{"sequence": "TGGTTGGATG", "switch fluorescence ratio": "1.003 ± 0.006"}
{"sequence": "TGGTTGGCGG", "switch fluorescence ratio": "1.03 ± 0.062"}
{"sequence": "TGGTTGGGAC", "switch fluorescence ratio": "0.9953 ± 0.0089"}
{"sequence": "TGGTTGGGGC", "switch fluorescence ratio": "0.986 ± 0.023"}
{"sequence": "TGGTTGTCGT", "switch fluorescence ratio": "1.01 ± 0.033"}
{"sequence": "TGGTTGTTT", "switch fluorescence ratio": "0.9856 ± 0.0018"}
{"sequence": "TGGTTGTTTG", "switch fluorescence ratio": "0.968 ± 0.035"}
{"sequence": "TGGTTTAACA", "switch fluorescence ratio": "0.9924 ± 0.003"}
{"sequence": "TGGTTTAGAG", "switch fluorescence ratio": "0.979 ± 0.024"}
{"sequence": "TGGTTTAGGT", "switch fluorescence ratio": "0.995 ± 0.028"}
{"sequence": "TGGTTTCA", "switch fluorescence ratio": "1.02 ± 0.041"}
{"sequence": "TGGTTTCAGA", "switch fluorescence ratio": "0.984 ± 0.019"}
{"sequence": "TGGTTTGATC", "switch fluorescence ratio": "1.01 ± 0.026"}
{"sequence": "TGGTTTGGAG", "switch fluorescence ratio": "0.984 ± 0.057"}
{"sequence": "TGGTTTGGCT", "switch fluorescence ratio": "1.03 ± 0.023"}
{"sequence": "TGGTTTGGGT", "switch fluorescence ratio": "0.986 ± 0.026"}
{"sequence": "TGTAAAGATT", "switch fluorescence ratio": "1.0093 ± 0.00041"}
{"sequence": "TGTAAAGGAA", "switch fluorescence ratio": "0.992 ± 0.024"}
{"sequence": "TGTAAATGGG", "switch fluorescence ratio": "0.984 ± 0.024"}
{"sequence": "TGTAACGCTG", "switch fluorescence ratio": "0.974 ± 0.057"}
{"sequence": "TGTAACTTCG", "switch fluorescence ratio": "1.001 ± 0.0082"}
{"sequence": "TGTAAGAGAT", "switch fluorescence ratio": "1.01 ± 0.011"}
{"sequence": "TGTAAGTTTC", "switch fluorescence ratio": "1.04 ± 0.073"}
{"sequence": "TGTAATCAAA", "switch fluorescence ratio": "1 ± 0.022"}
{"sequence": "TGTAATCTTC", "switch fluorescence ratio": "1.01 ± 0.016"}
{"sequence": "TGTAATTGGG", "switch fluorescence ratio": "0.9881 ± 0.0015"}
{"sequence": "TGTAATTTGA", "switch fluorescence ratio": "0.984 ± 0.021"}
{"sequence": "TGTACGTAGG", "switch fluorescence ratio": "1.24 ± 0.21"}
{"sequence": "TGTACGTGGC", "switch fluorescence ratio": "1.08 ± 0.086"}
{"sequence": "TGTACTTCTT", "switch fluorescence ratio": "1.24 ± 0.3"}
{"sequence": "TGTAGCAGGT", "switch fluorescence ratio": "1.155 ± 0.0025"}
{"sequence": "TGTAGGAGGA", "switch fluorescence ratio": "1.01 ± 0.017"}
{"sequence": "TGTAGGGCGA", "switch fluorescence ratio": "0.99 ± 0.034"}
{"sequence": "TGTAGGGGCA", "switch fluorescence ratio": "0.99 ± 0.014"}
{"sequence": "TGTAGGGGGA", "switch fluorescence ratio": "0.999 ± 0.052"}
{"sequence": "TGTAGGGGTC", "switch fluorescence ratio": "1.01 ± 0.011"}
{"sequence": "TGTAGGGTCA", "switch fluorescence ratio": "0.9819 ± 0.0023"}
{"sequence": "TGTAGGTAAA", "switch fluorescence ratio": "0.997 ± 0.029"}
{"sequence": "TGTAGGTGTT", "switch fluorescence ratio": "0.999 ± 0.077"}
{"sequence": "TGTAGTAGGT", "switch fluorescence ratio": "1.004 ± 0.002"}
{"sequence": "TGTAGTATCG", "switch fluorescence ratio": "1.016 ± 0.0045"}
{"sequence": "TGTATAAGGT", "switch fluorescence ratio": "0.966 ± 0.023"}
{"sequence": "TGTATGATGG", "switch fluorescence ratio": "1.02 ± 0.031"}
{"sequence": "TGTATGGGGA", "switch fluorescence ratio": "0.9997 ± 0.004"}
{"sequence": "TGTATGGGGG", "switch fluorescence ratio": "0.946 ± 0.038"}
{"sequence": "TGTATGTGAG", "switch fluorescence ratio": "0.98 ± 0.054"}
{"sequence": "TGTATTAGTA", "switch fluorescence ratio": "0.949 ± 0.0089"}
{"sequence": "TGTATTGCGG", "switch fluorescence ratio": "1.02 ± 0.0071"}
{"sequence": "TGTCAGGGGA", "switch fluorescence ratio": "1.018 ± 0.007"}
{"sequence": "TGTCCGGGCT", "switch fluorescence ratio": "0.999 ± 0.028"}
{"sequence": "TGTCCTGGCT", "switch fluorescence ratio": "1.02 ± 0.067"}
{"sequence": "TGTCGACCG", "switch fluorescence ratio": "0.99 ± 0.014"}
{"sequence": "TGTCGAGGGG", "switch fluorescence ratio": "0.981 ± 0.017"}
{"sequence": "TGTCGGATCG", "switch fluorescence ratio": "1 ± 0.013"}
{"sequence": "TGTCGGGCCT", "switch fluorescence ratio": "1.03 ± 0.042"}
{"sequence": "TGTCGTGACA", "switch fluorescence ratio": "1.006 ± 0.0038"}
{"sequence": "TGTCGTTCTT", "switch fluorescence ratio": "0.973 ± 0.013"}
{"sequence": "TGTCGTTTAC", "switch fluorescence ratio": "1.05 ± 0.021"}
{"sequence": "TGTCTTACCT", "switch fluorescence ratio": "1.147 ± 0.0093"}
{"sequence": "TGTGAAGGTT", "switch fluorescence ratio": "0.986 ± 0.054"}
{"sequence": "TGTGACGGGG", "switch fluorescence ratio": "1.02 ± 0.035"}
{"sequence": "TGTGAGATTG", "switch fluorescence ratio": "1 ± 0.033"}
{"sequence": "TGTGAGTTAG", "switch fluorescence ratio": "1 ± 0.025"}
{"sequence": "TGTGAGTTGC", "switch fluorescence ratio": "0.949 ± 0.0069"}
{"sequence": "TGTGATAGTG", "switch fluorescence ratio": "0.999 ± 0.053"}
{"sequence": "TGTGATAGTT", "switch fluorescence ratio": "0.999 ± 0.015"}
{"sequence": "TGTGATATAT", "switch fluorescence ratio": "0.9877 ± 0.0011"}
{"sequence": "TGTGATGATG", "switch fluorescence ratio": "0.947 ± 0.036"}
{"sequence": "TGTGATTGGG", "switch fluorescence ratio": "0.988 ± 0.017"}
{"sequence": "TGTGATTTTT", "switch fluorescence ratio": "1.01 ± 0.028"}
{"sequence": "TGTGCACATT", "switch fluorescence ratio": "1.02 ± 0.024"}
{"sequence": "TGTGCAGCG", "switch fluorescence ratio": "1.02 ± 0.022"}
{"sequence": "TGTGCGACCT", "switch fluorescence ratio": "1.16 ± 0.043"}
{"sequence": "TGTGCGGGGG", "switch fluorescence ratio": "1.02 ± 0.019"}
{"sequence": "TGTGCGGGTT", "switch fluorescence ratio": "1.02 ± 0.02"}
{"sequence": "TGTGCTATTG", "switch fluorescence ratio": "0.983 ± 0.058"}
{"sequence": "TGTGGAAAAT", "switch fluorescence ratio": "1.03 ± 0.074"}
{"sequence": "TGTGGAAAGG", "switch fluorescence ratio": "1 ± 0.014"}
{"sequence": "TGTGGCAGGT", "switch fluorescence ratio": "0.982 ± 0.031"}
{"sequence": "TGTGGCCGGG", "switch fluorescence ratio": "0.998 ± 0.024"}
{"sequence": "TGTGGCCGTT", "switch fluorescence ratio": "1.03 ± 0.059"}
{"sequence": "TGTGGGAAAT", "switch fluorescence ratio": "0.988 ± 0.016"}
